Drawing on US7605127, this text covers [3H]-thymidine incorporation in B5/589 cells, percent of the maximal DNA synthesis elicited by HGF/SF (% of maximal HGF/SF response, inhibition of HGF/SF mitogenic activity in the B5/589 bioassay: molar excess for ~50% reduction (fold molar excess over HGF/SF) and affinity for Met relative to full-length HGF/SF (fold of HGF/SF affinity) for 1 substance.

The target in assay [1] is c-met protooncogene product (HGF receptor) on B5/589 human mammary epithelial cells (human) (UniProt P08581). Kind of assay: cell-based or functional assay.
For assay [2] the target is unchanged. Kind of assay: competition of 125I-HGF/NK1 cross-linking to B5/589 cells by excess unlabeled HGF/NK1 or HGF/SF.

In assay [1], “HGF/NK1 (truncated HGF variant; N-terminal domain and first kringle domain), eukaryotically expressed from the pH46 (2.2 kb) coding region (from UniProt P14210 32-210) (ligand)” returned a [3H]-thymidine incorporation in B5/589 cells, percent of the maximal DNA synthesis elicited by HGF/SF (% of maximal HGF/SF response at 8 nM) of 20 and an inhibition of HGF/SF mitogenic activity in the B5/589 bioassay: molar excess for ~50% reduction (fold molar excess over HGF/SF) of 20. The affinity for Met relative to full-length HGF/SF (fold of HGF/SF affinity) in assay [2] stood at 0.25.
